Reference: paper PMC10942606
Where a chain is given by its changes, count along the chain named.

How the values were obtained:
Test in all cases: MST
[1] = target: T1, Pcf1_WHD (Schizosaccharomyces pombe, UniProt Q1MTN9 471-544)
T1 sequence: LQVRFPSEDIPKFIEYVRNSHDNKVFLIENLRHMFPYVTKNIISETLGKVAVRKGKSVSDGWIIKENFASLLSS

[2] = target: T2, Pcf1-PIP*;Pcf2;Pcf3 (Schizosaccharomyces …, UniProt Q1MTN9;O13985;Q9Y825 1-544;1-512;1-408, Q172A;L175A;F178A;F179A||)
T2 sequence 1: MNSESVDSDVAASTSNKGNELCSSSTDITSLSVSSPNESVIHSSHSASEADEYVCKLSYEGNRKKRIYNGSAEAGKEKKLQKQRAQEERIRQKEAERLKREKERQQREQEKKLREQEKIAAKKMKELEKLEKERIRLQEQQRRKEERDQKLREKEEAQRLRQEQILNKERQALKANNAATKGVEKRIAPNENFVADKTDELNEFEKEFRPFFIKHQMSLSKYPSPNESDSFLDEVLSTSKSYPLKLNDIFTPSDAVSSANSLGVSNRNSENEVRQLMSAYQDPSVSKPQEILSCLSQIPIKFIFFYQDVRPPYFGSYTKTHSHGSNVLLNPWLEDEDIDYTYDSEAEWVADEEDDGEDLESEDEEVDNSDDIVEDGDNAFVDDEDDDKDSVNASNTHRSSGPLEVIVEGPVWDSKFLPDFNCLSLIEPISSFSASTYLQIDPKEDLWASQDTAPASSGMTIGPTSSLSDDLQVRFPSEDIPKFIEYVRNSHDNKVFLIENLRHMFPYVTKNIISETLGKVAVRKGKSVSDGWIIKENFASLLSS
T2 sequence 2: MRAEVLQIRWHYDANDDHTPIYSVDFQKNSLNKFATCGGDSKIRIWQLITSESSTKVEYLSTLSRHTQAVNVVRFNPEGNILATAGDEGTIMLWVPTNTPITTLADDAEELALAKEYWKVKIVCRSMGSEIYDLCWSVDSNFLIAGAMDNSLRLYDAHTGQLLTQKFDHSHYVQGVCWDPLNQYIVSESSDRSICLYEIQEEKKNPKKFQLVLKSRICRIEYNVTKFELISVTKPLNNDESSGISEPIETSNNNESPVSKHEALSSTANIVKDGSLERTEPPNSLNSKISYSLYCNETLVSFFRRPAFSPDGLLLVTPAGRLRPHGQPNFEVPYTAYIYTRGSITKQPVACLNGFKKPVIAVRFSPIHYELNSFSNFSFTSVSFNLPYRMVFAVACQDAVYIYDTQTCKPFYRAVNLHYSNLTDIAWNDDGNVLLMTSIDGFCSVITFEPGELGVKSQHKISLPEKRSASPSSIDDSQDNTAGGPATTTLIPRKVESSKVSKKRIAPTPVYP
T2 sequence 3: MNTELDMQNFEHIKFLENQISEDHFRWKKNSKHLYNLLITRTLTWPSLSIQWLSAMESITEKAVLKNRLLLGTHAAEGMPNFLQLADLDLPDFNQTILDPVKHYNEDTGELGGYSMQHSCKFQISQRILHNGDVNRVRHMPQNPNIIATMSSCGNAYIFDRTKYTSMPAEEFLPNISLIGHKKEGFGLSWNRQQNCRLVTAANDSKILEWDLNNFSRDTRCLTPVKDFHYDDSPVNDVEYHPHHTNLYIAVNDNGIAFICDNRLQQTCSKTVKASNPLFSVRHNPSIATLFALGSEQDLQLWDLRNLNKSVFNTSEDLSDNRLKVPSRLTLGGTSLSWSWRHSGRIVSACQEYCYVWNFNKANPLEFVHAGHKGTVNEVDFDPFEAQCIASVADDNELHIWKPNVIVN

[3] = target: T3, Pcf1-KER*;Pcf2;Pcf3 (Schizosaccharomyces …, UniProt Q1MTN9;O13985;Q9Y825 1-544;1-512;1-408, R147E;K150E;K154E;R161E;K168E||)
T3 sequence 1: T2 sequence 1 with R147E, K150E, K154E, R161E, K168E, A172Q, A175L, A178F, A179F
T3 sequence 2: T2 sequence 2
T3 sequence 3: T2 sequence 3

[4] = target: T4, Pcf1_KER (Schizosaccharomyces pombe, UniProt Q1MTN9 56-170)
T4 sequence: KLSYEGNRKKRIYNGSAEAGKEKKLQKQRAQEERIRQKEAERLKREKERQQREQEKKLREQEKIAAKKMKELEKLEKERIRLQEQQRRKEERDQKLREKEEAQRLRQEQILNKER

B1: 40 bp dsDNA, Alexa488 (dsDNA)
DNA 1: ATCAATATCCACCTGCAGATACTACCAAAAGTGTATTTGG
DNA 2: CCAAATACACTTTTGGTAGTATCTGCAGGTGGATATTGAT
- binding result [1]: no binding
- apparent K (half saturation) [2]: 700 ± 100 nM
- apparent K (half saturation) [3]: 2800 ± 400 nM
- apparent K (half saturation) [4]: 1100 ± 200 nM
